Here are results for two molecules from patent US20260284216 (published 2026).

Residue numbers refer to the chain shown, from its start. Where two headings read alike, the source gives them in different places.

Holding throughout (assay): BLI
Background: BLI is a label-free optical method that tracks binding on a fibre tip over time.

In one experiment the target is T1, Trop2 (human, UniProt P09758).
T1 chain: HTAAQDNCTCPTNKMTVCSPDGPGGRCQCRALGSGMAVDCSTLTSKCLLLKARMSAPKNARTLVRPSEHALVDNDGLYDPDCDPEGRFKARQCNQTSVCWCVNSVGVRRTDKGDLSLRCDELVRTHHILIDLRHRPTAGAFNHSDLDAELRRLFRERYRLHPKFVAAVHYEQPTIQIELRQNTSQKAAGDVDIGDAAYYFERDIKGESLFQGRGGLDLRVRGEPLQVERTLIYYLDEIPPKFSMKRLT

The target of experiment [1] is TNF-alpha (human).
Experiment [2] addresses TNF-alpha (human). The source holds these as a separate data set.
Experiment [3] has as its target T2, FAP (human, UniProt Q12884).
For experiment [4], the target named is TNF-alpha (human). This is another data set of the same source.
In experiment [5] the target is T2, FAP. This is another data set of the same source.

Sequence of TNF-alpha (human) (chain, as listed by the source): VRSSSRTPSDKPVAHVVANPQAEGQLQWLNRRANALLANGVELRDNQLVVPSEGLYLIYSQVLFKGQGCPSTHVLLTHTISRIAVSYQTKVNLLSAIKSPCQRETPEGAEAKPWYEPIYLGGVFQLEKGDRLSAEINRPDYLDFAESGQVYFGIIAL
T2 sequence (Q12884 26-760): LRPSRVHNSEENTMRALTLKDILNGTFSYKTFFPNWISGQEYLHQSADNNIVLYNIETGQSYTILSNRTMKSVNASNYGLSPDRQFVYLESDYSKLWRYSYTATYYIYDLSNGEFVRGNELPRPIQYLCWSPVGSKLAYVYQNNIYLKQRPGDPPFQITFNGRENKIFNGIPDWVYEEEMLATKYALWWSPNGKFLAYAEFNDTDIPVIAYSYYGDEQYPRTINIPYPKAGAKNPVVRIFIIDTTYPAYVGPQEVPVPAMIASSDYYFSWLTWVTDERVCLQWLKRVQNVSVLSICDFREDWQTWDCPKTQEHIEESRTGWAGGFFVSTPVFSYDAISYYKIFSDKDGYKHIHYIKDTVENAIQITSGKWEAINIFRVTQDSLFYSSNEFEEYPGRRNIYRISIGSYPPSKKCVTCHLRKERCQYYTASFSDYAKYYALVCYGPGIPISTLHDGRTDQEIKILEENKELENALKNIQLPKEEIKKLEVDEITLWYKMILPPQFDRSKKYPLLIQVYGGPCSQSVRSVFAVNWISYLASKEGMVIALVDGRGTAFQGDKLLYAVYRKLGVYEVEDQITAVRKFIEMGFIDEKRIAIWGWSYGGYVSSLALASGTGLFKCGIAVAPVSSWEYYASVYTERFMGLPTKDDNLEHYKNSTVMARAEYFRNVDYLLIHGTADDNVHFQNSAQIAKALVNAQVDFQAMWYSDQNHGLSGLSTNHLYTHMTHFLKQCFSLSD

B1: TN01 (antibody, V domains shown)
VH: EVQLVESGGGLVQPGGSLRLSCAASGYVFTDYGMNWVRQAPGKGLEWMGWINTAYGSPDYADSVKGRFTFSLDTSKSTAYLQMNSLRAEDTAVYYCARGYRYYAMDYWGQGTLVTVSS
VL: DIQMTQSPSSLSASVGDRVTITCKASQNVGTNVAWYQQKPGKAPKALIYSASFLYSGVPYRFSGSGSGTDFTLTISSLQPEDFATYYCQQVGDYPLTFGQGTKVEIKR
The Kd is the equilibrium constant for the complex coming apart. The low end stands for higher affinity, the high end for lower affinity. On to B1, for which the figures for the Kd with Trop2 and with TNF-alpha [1] were 101 nM and 16.5 nM, respectively.

B2: FN15 (antibody, V domains shown)
VH: B1 VH with A54D, Y55N, S57T, D59Y, Y102S
VL: B1 VL with N28Y, V29T, G30Y, T31N, N32A, V91S, G92Y, D93G, P95L, L96V
As to B2, the dissociation constant Kd amounted to 25.7 nM with TNF-alpha [2], 2.19 nM in the experiment with FAP [3], 20.5 nM in the experiment with TNF-alpha [4] and 13.1 nM with FAP [5].
